According to patent publication US20060073572A1, “Cytokine structurally related to IL-17” (The Johns Hopkins University, priority 2001, published 2006):
Entries after “also recorded” stand apart in the source; their conditions may differ.

Tests used:
Format in all cases: cell-based, human
p38 = assay: Western blotting of p38 activation in ML-1-stimulated cells; conditions: any time point, FIG. 6A (PBECs)
Protocol: (§1) FIGS. 6A-6D. Kinetic activation of ERK1/2 by ML-1 in PBECs (FIG. 6A) and HUVECs (FIG. 6B). The cells were incubated with or without ML-1 (100 ng/ml) for different time points as indicated. Western blotting analysis was performed by using antibodies against different MAP kinases as described in Example 8. FIGS. 6C and 6D. Effect of PD98059 on ML-1-induced phosphorylation of ERK1/2 in PBECs (FIG. 6C) and HUVECs (FIG. 6D). The cells were preincubated with PD98059 ([…]) or DMSO vehicle control for 1 hour, followed by stimulation of PBECs and HUVECs with medium or ML-1 for 20 minutes or 10 minutes, respectively. The results shown are representative of three separate experiments.
For analysis of activation of MAP kinases, PBECs were treated with IL-17 (100 ng/ml) for various time periods, with or without the MEK 1/2 inhibitor PD98059 ([…]; Calbiochem, La Jolla, Calif.) (15), the p38 inhibitor SB202190 (0.5-10 μM; ref. 16), or a vehicle control, DMSO (Me2SO) for 1 hour. […] Following the treatment, the cells were washed with ice-cold PBS. […]
(§2) Immunoreactive proteins were detected using antibodies against various kinases and phosphorylated kinases. […] Western blotting detection reagents (Amersham) and Hyper ECL luminescence detection film (Amersham) were used. […]

ERK1/2 = assay: Western blotting of ERK1/2 phosphorylation in HUVECs; conditions: ML-1 100 ng/ml
Protocol: as §1
For analysis of activation of MAP kinases, PBECs were treated with IL-17 (100 ng/ml) for various time periods, with or without the MEK 1/2 inhibitor PD98059 ([…]; Calbiochem, La Jolla, Calif.) (15), the p38 inhibitor SB202190 (0.5-10 μM; ref. 16), or a vehicle control, DMSO (Me2SO) for 1 hour. […] Following the treatment, the cells were washed with ice-cold PBS. Cell pellets were immediately lysed in cold lysis buffer [20 mM Tris (pH 7.4), 4 mM EDTA, 2 mM EGTA, 1 mM PMSF, […] aprotinin, 200 mg/ml leupeptin, 50 mM NaF, 5 mM NaRP2O7, 1 mM Na3VO4, and 1% Nonidet P40; all purchased from Sigma]. Extracts (1×10^6 cell equivalents/lane) were suspended with an equal volume of 2× loading buffer [0.1 M Tris-HCl (pH 6.8)], 4% SDS, 0.005% bromophenol blue, and 20% glycerol) containing 2-ME (0.7 M) and subjected to 4-20% Tris-glycine gel electrophoresis (NOVEX, San Diego, Calif.). Gels were then transferred to PVDF membranes (BIO-RAD, Hercules, Calif.) with a Trans Blot apparatus (NOVEX). The membranes were immersed overnight in This-buffered saline/Tween 20 containing 5% nonfat dry skim milk (Carnation, Los Angeles, Calif.).
as §2

IL-6 = IL-6 expression in HUVECs (ELISA, RT-PCR); conditions: ML-1 10 and 100 ng/ml, 24 and 48 hours, ELISA
Protocol: FIG. 5. Analysis of IL-6 (FIG. 5A) and IL-8 (FIG. 5B) expression in primary bronchial epithelial cells (PBECs) and human umbilical vein endothelial cells (HUVECs) stimulated by ML-1. The IL-6 and IL-8 protein release in the supernatant was determined by ELISA as described in Example 8. The results were expressed as mean+SD (n=6). *p<0.05 was considered significant vs control.
FIG. 7A-7D. Effect of PD98059 on IL-6 (FIG. 7A) and IL-8 (FIG. 7B) protein production in PBECs and HUVECs. The cells were preincubated with varying concentrations of PD98059, SB202190, or DMSO vehicle control for 1 hour, followed by stimulation with ML-1 (100 ng/ml) for 24 hours. The results are expressed as the mean+SD (n=6). *P<0.05 when compared to cultures without the addition of PD98059. FIGS. 7C and 7D. Semi-quantitative analysis of gene expression for IL-6 (FIG. 7C) and IL-8 (FIG. 7D) by RT-PCR. The cells were preincubated as described above and treated with ML-1 for 4 hours. RT-PCR was performed as described in Example 8. The results shown are representative of three separate experiments.
Human umbilical vein endothelial cells (HUVECs) were obtained from Clonetics and cultured in endothelial cell growth media (EGM; Clonetics) containing 12 μg/ml bovine brain extract, 10 ng/ml EGF, 1 μg/ml hydrocortisone, 50 μg/ml gentimicin, 50 ng/ml amphotericin B, and 5% FBS amphotericin-B (Clonetics).
PBECs and HUVECs were treated with ML-1 100 ng/ml of ML-1 for various time points. Total RNA was extracted using RNeasy (Qiagen) from 1×10^6 cells 4 hours after stimulation or exchange of media. […]
The amplification reaction was performed for 23 cycles with denaturation at 94° C. for 45 seconds, annealing at 56° C. for 45 seconds, and extension at 72° C. for 45 seconds. PCR products were detected by ethidium bromide staining and normalized by the intensity of an amplified housekeeping gene, G3PDH (see above). […] IL-6 and IL-8 protein levels in the collected supernatants were determined with a commercially available ELISA kit (Biosource, Camarillo, Calif.) according to the manufacturer's instructions.

B1: ML-1: new member of the IL-17 cytokine family, SEQ ID NO:2; His-tagged recombinant protein expressed in COS-7 cells and affinity purified (protein, listed as Homo sapiens)
chain: MKLDIGIINENQRVSMSRNIESRSTSPWNYTVTWDPNRYPSEVVQAQCRNLGCINAQGKEDISMNSVPIQQETLVVRRKHQGCSVSFQLEKVLVTVGCTCVTPVIHHVQ
modifications: His tag
p38
  activation of p38 kinase: No activation
ERK1/2
  time of maximum phosphorylation of ERK1/2: 10 min
  time of return of ERK1/2 phosphorylation to baseline levels: ≤ 60 min
IL-6
  IL-6 production: time-dependent increase; also recorded: significantly induced
